US20110237779A1 (Genentech, published 2011)
Changes are numbered by the printed parent chain. In names and notes the source's numbering stands.

B1: D3 direct hypervariable region graft on the acceptor human consensus framework (Fab displayed on phage) (Fab, V domains shown)
VH: EVQLVESGGGLVQPGGSLRLSCAASGFNIKDYYMHWVRQAPGKGLEWVGWIDPENGNTIYDPKFQDRFTISADTSKNTAYLQMNSLRAEDTAVYYCARDTAAYFDYWGQGTLVTVSS
VL: DIQMTQSPSSLSASVGDRVTITCKASRDIKSYLSWYQQKPGKAPKLLIYYATSLADGVPSRFSGSGSGTDFTLTISSLQPEDFATYYCLQHGESPFTFGQGTKVEIK
notes: Monovalent Fab-g3 phage display: light chain, and VH-CH1 followed by the minor phage coat protein P3; Kabat numbering; No framework changes; also called D3 grafted variant; D3 graft
B2: D3 library clone, CDR-L3 LQDGESPFT (Fab, V domains shown)
VH: B1 VH
VL: B1 VL with H91D
notes: Change against the D3 direct graft (Kabat): VL H91D; Siblings 5; copies: 1 + 1
B3: D3 library clone, CDR-L1 KGQRVLNSWLS (Fab, V domains shown)
VH: B1 VH
VL: B1 VL with A25G, S26Q, D28V, I29L, K30N, Y32W
notes: Changes against the D3 direct graft (Kabat): VL A25G, S26Q, D28V, I29L, K30N, Y32W; copies: 1 + 1
B4: D3 library clone, CDR-L1 NASLVINRWLS (Fab, V domains shown)
VH: B1 VH
VL: B1 VL with K24N, R27L, D28V, K30N, S31R, Y32W
notes: Changes against the D3 direct graft (Kabat): VL K24N, R27L, D28V, K30N, S31R, Y32W; copies: 1 + 1
B5: D3 library clone, CDR-L2 YTAGPSD (Fab, V domains shown)
VH: B1 VH
VL: B1 VL with A51T, T52A, S53G, L54P, A55S
notes: Changes against the D3 direct graft (Kabat): VL A51T, T52A, S53G, L54P, A55S; copies: 1 + 1
B6: D3 library clone, CDR-L2 YEPGLAD (Fab, V domains shown)
VH: B1 VH
VL: B1 VL with A51E, T52P, S53G
notes: Changes against the D3 direct graft (Kabat): VL A51E, T52P, S53G; copies: 1 + 1
B7: D3 library clone, CDR-L2 YVPWTAD (Fab, V domains shown)
VH: B1 VH
VL: B1 VL with A51V, T52P, S53W, L54T
notes: Changes against the D3 direct graft (Kabat): VL A51V, T52P, S53W, L54T; copies: 1 + 1
B8: D3 library clone, CDR-L2 YETGPTD (Fab, V domains shown)
VH: B1 VH
VL: B1 VL with A51E, S53G, L54P, A55T
notes: Changes against the D3 direct graft (Kabat): VL A51E, S53G, L54P, A55T; copies: 1 + 1
B9: D3 library clone, CDR-L2 RGTSLFE, VL K24E, D28V, Y32F (Fab, V domains shown)
VH: B1 VH
VL: B1 VL with K24E, D28V, Y32F, Y50R, A51G, A55F, D56E
notes: Changes against the D3 direct graft (Kabat): VL K24E, D28V, Y32F, Y50R, A51G, A55F, D56E; copies: 1 + 1
B10: D3 library clone, CDR-L1 KGSGYIKHFVS (Fab, V domains shown)
VH: B1 VH
VL: B1 VL with A25G, R27G, D28Y, S31H, Y32F, L33V
notes: Changes against the D3 direct graft (Kabat): VL A25G, R27G, D28Y, S31H, Y32F, L33V; Siblings 2; copies: 1 + 1
B11: D3 library clone, CDR-L3 LSDGSSPFT (Fab, V domains shown)
VH: B1 VH
VL: B1 VL with Q90S, H91D, E93S
notes: Changes against the D3 direct graft (Kabat): VL Q90S, H91D, E93S; copies: 1 + 1
B12: D3 library clone, CDR-L2 YATGETD (Fab, V domains shown)
VH: B1 VH
VL: B1 VL with S53G, L54E, A55T
notes: Changes against the D3 direct graft (Kabat): VL S53G, L54E, A55T; Siblings 2; copies: 1 + 1
B13: D3 library clone, CDR-L2 YAPSLAD (Fab, V domains shown)
VH: B1 VH
VL: B1 VL with T52P
notes: Change against the D3 direct graft (Kabat): VL T52P; copies: 1 + 1
B14: D3 library clone, CDR-L2 YETGWAE (Fab, V domains shown)
VH: B1 VH
VL: B1 VL with A51E, S53G, L54W, D56E
notes: Changes against the D3 direct graft (Kabat): VL A51E, S53G, L54W, D56E; copies: 1 + 1
B15: D3 library clone, CDR-L2 YAPGPAD (Fab, V domains shown)
VH: B1 VH
VL: B1 VL with T52P, S53G, L54P
notes: Changes against the D3 direct graft (Kabat): VL T52P, S53G, L54P; copies: 1 + 1
B16: D3 library clone, CDR-L2 YAPRRAR (Fab, V domains shown)
VH: B1 VH
VL: B1 VL with T52P, S53R, L54R, D56R
notes: Changes against the D3 direct graft (Kabat): VL T52P, S53R, L54R, D56R; Siblings 2; copies: 1 + 1
B17: D3 library clone, CDR-L1 KGSRDTTSFVS (Fab, V domains shown)
VH: B1 VH
VL: B1 VL with A25G, I29T, K30T, Y32F, L33V
notes: Changes against the D3 direct graft (Kabat): VL A25G, I29T, K30T, Y32F, L33V; copies: 1 + 1
B18: D3 library clone, CDR-L2 YETGEPE (Fab, V domains shown)
VH: B1 VH
VL: B1 VL with A51E, S53G, L54E, A55P, D56E
notes: Changes against the D3 direct graft (Kabat): VL A51E, S53G, L54E, A55P, D56E; copies: 1 + 1
B19: D3 library clone, CDR-L2 YAPGLAD (Fab, V domains shown)
VH: B1 VH
VL: B1 VL with T52P, S53G
notes: Changes against the D3 direct graft (Kabat): VL T52P, S53G; Siblings 2; copies: 1 + 1
B20: D3 library clone, CDR-L2 YTTGPVD (Fab, V domains shown)
VH: B1 VH
VL: B1 VL with A51T, S53G, L54P, A55V
notes: Changes against the D3 direct graft (Kabat): VL A51T, S53G, L54P, A55V; copies: 1 + 1
B21: D3 library clone, CDR-L3 LQDGESPFT, I58F, N82aI, D95N (Fab, V domains shown)
VH: B1 VH with I59F, N84I, D99N
VL: B1 VL with H91D
notes: Changes against the D3 direct graft (Kabat): VL H91D; VH I58F, N82aI, D95N; copies: 1 + 1
B22: D3 library clone, CDR-L2 YEGSGKR (Fab, V domains shown)
VH: B1 VH
VL: B1 VL with A51E, T52G, L54G, A55K, D56R
notes: Changes against the D3 direct graft (Kabat): VL A51E, T52G, L54G, A55K, D56R; Siblings 8; copies: 1 + 1
B23: D3 library clone, CDR-L2 YESGPAD (Fab, V domains shown)
VH: B1 VH
VL: B1 VL with A51E, T52S, S53G, L54P
notes: Changes against the D3 direct graft (Kabat): VL A51E, T52S, S53G, L54P; Siblings 2; copies: 1 + 1
B24: D3 library clone, CDR-L2 DAIGLAD (Fab, V domains shown)
VH: B1 VH
VL: B1 VL with Y50D, T52I, S53G
notes: Changes against the D3 direct graft (Kabat): VL Y50D, T52I, S53G; copies: 1 + 1

Experiments:
human tissue factor [1] = target: T1, human tissue factor (human, UniProt P13726 33-251, limits assumed); assay: phage ELISA, Fab on phage, competition with antigen in solution
T1 construct: construct not described; also called TF

human tissue factor [2] = target: T1, human tissue factor; assay: phage ELISA, solution competition: Fab-phage incubated with serially diluted TF, unbound phage captured on TF-coated wells; IC50 used as affinity estimate

Binder	IC50 (human tissue factor [1]) [nM]	IC50 (human tissue factor [2]) [nM]
B1	20	19
B2	–	13
B3	–	21
B4	–	16
B5	–	16
B6	–	7
B7	–	10
B8	–	9
B9	–	10
B10	–	9
B11	–	15
B12	–	16
B13	–	4
B14	–	10
B15	–	10
B16	–	11
B17	–	19
B18	–	11
B19	–	8
B20	–	21
B21	–	8
B22	–	12
B23	–	8
B24	–	17
